Results on 27 sequences are retold here after the supplement of paper PMC9170038.

The test system of this series is MS2 coat protein. As to the kind of experiment: apparent KD of MS2 coat protein; designed switch direction (-1 OFF switch, 1 ON switch): -1; higher = weaker reporter binding. The gist of the method:
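Each step of the titration lasted 0.8–1.5 h at the lowest concentration and 10–20 min at the highest. The protein, SNAP-549-labelled MS2 coat protein, went from 0.7 or 1.5 nM doubling to 3 µM over RNA switches transcribed on Illumina chips by stalled E. coli RNA polymerase. Normalised cluster fluorescence was curve-fitted, and the per-design median over clusters is given as apparent KD.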

[1] abbreviates: input ligand: microRNA oligo, concentration not stated.

With “ACACAAGCCCUUUGCUCGUUUUAAUACAGCGGGCUCUCCACAUGAGGAUCACCCAUGUAGGCCUUGUUCCAAGGCCG [Maerarce] (puzzle: Sensor v3, turn-off variant 2)”, the “apparent KD of MS2 coat protein” value (Eterna round: R95, input ligand: FMN 200 uM) worked out at 22.6 nM; the “apparent KD of MS2 coat protein” value (Eterna round: R95, input ligand: microRNA oligo, concentration not stated) came to 22.3 nM; the “apparent KD of MS2 coat protein” value (Eterna round: R95, input ligand: none) was found to be 21.8 nM.
For “ACACACAGAGGAUAUCUUCCGCAUGACAUGAGGAUCACCCAUGUGUGCAUGCCCAAAGGUAGAGAAGGCUGUGUGU [eternacac ex5r4 #4] (Eterna round: R97, puzzle: Exclusion 5)”, the “apparent KD of MS2 coat protein” value runs as follows: (input ligand: FMN 200 uM) 24.9 nM; (input ligand: none) 22.2 nM.
For the sequence “ACACUACAUGUAGGAUAUGCGUGGCGAAGCUAUGCAGAAGGACAUGAGGAUCACCCAUGUUUUAGCGUCUGCGUACAGAUGCGU [JL ENG1 1.46] (Eterna round: R96, puzzle: Exclusion NG 1)”, the “apparent KD of MS2 coat protein” value turned out to be 44.7 nM (input ligand: FMN 200 uM), 16.4 nM under setting [1] and 19.3 nM (input ligand: none).
On to “ACAGGCUUUUUGCUCGUCUACAUGAGGAUCACCCAUGUGGGAUUGUUGGUUGUGUUGCUUGUUUGUGCUCGUCUUGU [Low Nucleotide] (Eterna round: R97, puzzle: Sensor, turn-off variant 1)”, for which the “apparent KD of MS2 coat protein” value reads like this: (input ligand: FMN 200 uM) 16.1 nM; (input ligand: none) 17.6 nM.
Turning to “ACAGGUUUCAUAGGAUAUCUCUGACUAUGGCACUCCUUGUGUCCACAUGAGGAUCACCCAUGUCGAGAGAAGGGUGCACCUGCG [Arenena] (Eterna round: R96, puzzle: Exclusion NG 2)”, the “apparent KD of MS2 coat protein” value runs as follows: (input ligand: FMN 200 uM) 147 nM; under setting [1], 64.9 nM; (input ligand: none) 65.7 nM.
For “ACAGUGUUAGGAUAUCUGAGAGUUAGUCUCGACUAGUCGAAGGAGAAGGAACAUGAGGAUCACCCAUGUAGAUC [EX4 #77] (Eterna round: R97, puzzle: Exclusion 4)”, the “apparent KD of MS2 coat protein” value reads like this: (input ligand: FMN 200 uM) 144 nM; (input ligand: none) 35.8 nM.
For the sequence “ACAUAAAAGGCAGGAUAUUCAAACCCAUAGCUAGAAGAAGGGCCGAAGAACUUCUAACAUGAGGAUCACCCAUGUGAGCAUGGG [Ininesxeed] (Eterna round: R96, puzzle: Exclusion NG 1)”, the “apparent KD of MS2 coat protein” value is 82.4 nM (input ligand: FMN 200 uM), 43.9 nM under setting [1] and 64.6 nM (input ligand: none).
For the sequence “ACAUCACAGCUAGGAUAUAUAUGACAUGAGGAUCACCCAUGUUGUCCCAUGUUGACGAAAACCGAAUAGAAGGAGCUACAGAUG [Ex NG2 #4] (Eterna round: R96, puzzle: Exclusion NG 2)”, the “apparent KD of MS2 coat protein” value (input ligand: FMN 200 uM) was 53.2 nM, the “apparent KD of MS2 coat protein” value under setting [1] worked out at 54.9 nM and the “apparent KD of MS2 coat protein” value (input ligand: none) was 64.2 nM.
The corresponding values for “ACAUGACAGCUAGGAUAUAUAUGACAUGAGGAUCACCCAUGUUGUCCCAUGUUGACGAAAACCGAAUAGAAGGAGCCACCCAUG [Ex NG2 #2] (Eterna round: R96, puzzle: Exclusion NG 2)” are 86.1 nM, 53.6 nM and 71.4 nM.
Consider “ACAUGACUGCUAGGAUAUAGAUGACAUGAGGAUCACCCAUGUUGUCCCAUGUUUAUGGAAACGGACUAGAAGGAGCAGUAUAUG [Ex NG2 #13] (Eterna round: R96, puzzle: Exclusion NG 2)”, for which the “apparent KD of MS2 coat protein” value was determined as 18.8 nM (input ligand: FMN 200 uM), 26.2 nM under setting [1] and 20.2 nM (input ligand: none).
In the case of “ACAUGAGGAUCACCCAUGUAAUGAUGGGUACUAUAUUAUUCGUAGGAUAUCGUUGUUAGUUUGUUCGAGAAGGACGAUUGCCUU [JR_ExcNG3_Sub054] (Eterna round: R96, puzzle: Exclusion NG 3)”, the “apparent KD of MS2 coat protein” value worked out at 612 nM (input ligand: FMN 200 uM), 385 nM under setting [1] and 520 nM (input ligand: none).
As to “ACAUGAGGAUCACCCAUGUACGGUUGGUUUUCUCCGGCUGUUGAGGAUAUAGUCCGGUAUCCGCGCUAGAAGGUGAGGGUUGGC [Aenatbe mod 11] (Eterna round: R96, puzzle: Exclusion NG 3)”, the “apparent KD of MS2 coat protein” value turned out to be 104 nM (input ligand: FMN 200 uM), 74.6 nM under setting [1] and 87.6 nM (input ligand: none).
The corresponding values for “ACAUGAGGAUCACCCAUGUAGACAGCUGCAACCGGUGAAAGACAGGAUAUGUGACGGCACAGGGAACAGAAGGGUCAAAGAAAA [Ceatasoes] (Eterna round: R96, puzzle: Exclusion NG 3)” are 21.2 nM, 22 nM and 30.9 nM.
The corresponding values for “ACAUGAGGAUCACCCAUGUCAGGCUGGUCCACUCCGGCUGUUGAGGAUAUAGCCCGGUAUCCGCGCUAGAAGGUGAGGGCCGGC [Aenatbe mod 27] (Eterna round: R96, puzzle: Exclusion NG 3)” are 25.5 nM, 17.6 nM and 23 nM.
Take “ACAUGAGGAUCACCCAUGUCAGGCUGGUCCGCUCCGGCUGUUGAGGAUAUAGCCCGGUAUCCGCGCUAGAAGGUGAGGGCCGGC [Aenatbe mod 28] (Eterna round: R96, puzzle: Exclusion NG 3)”: the “apparent KD of MS2 coat protein” value (input ligand: FMN 200 uM) stood at 24.8 nM, the “apparent KD of MS2 coat protein” value under setting [1] worked out at 26.3 nM and the “apparent KD of MS2 coat protein” value (input ligand: none) was determined as 28.4 nM.
Consider “ACAUGAGGAUCACCCAUGUCAGGCUGGUCCGCUCCGGCUGUUGAGGAUAUAGCUCGGUGUCCGCGCUAGAAGGUGAGGGCCGGC [Aenatbe mod 32] (Eterna round: R96, puzzle: Exclusion NG 3)”, for which the “apparent KD of MS2 coat protein” value reads like this: (input ligand: FMN 200 uM) 25.3 nM; under setting [1], 19.3 nM; (input ligand: none) 24.6 nM.
Regarding “ACAUGAGGAUCACCCAUGUCCGGCUGGUCCGUCUCGGCUGUCGAGGAUAUAGCUUGGUGUCCGCGCUAGAAGGUGGGAGCUGGU [Aenatbe mod 69] (Eterna round: R96, puzzle: Exclusion NG 3)”, the “apparent KD of MS2 coat protein” value (input ligand: FMN 200 uM) turned out to be 99.7 nM, the “apparent KD of MS2 coat protein” value under setting [1] was 53.1 nM and the “apparent KD of MS2 coat protein” value (input ligand: none) was 96.6 nM.
The corresponding values for “ACAUGAGGAUCACCCAUGUCCGGCUGGUCUGGUCCGGCUGUCGAGGAUAUAGUCCGGUGUUCGCGCUAGAAGGCGAGGGCUGGA [Aenatbe mod 49] (Eterna round: R96, puzzle: Exclusion NG 3)” are 109 nM, 68.3 nM and 97.5 nM.
The corresponding values for “ACAUGAGGAUCACCCAUGUCCGGCUGGUCUGUCUCGGCUGUCGAGGAUAUAGCACGGUAUCCGCGCUAGAAGGCGGGAGCCGGA [Aenatbe mod 86] (Eterna round: R96, puzzle: Exclusion NG 3)” are 120 nM, 47.1 nM and 38.8 nM.
The like results for “ACAUGAGGAUCACCCAUGUCCGGCUGGUCUGUUCCGGUUGUCGAGGAUAUAGUUCGGUGUUCGCGCUAGAAGGUGGGAGCUGGG [Aenatbe mod 55] (Eterna round: R96, puzzle: Exclusion NG 3)” were, in that order, 308 nM, 163 nM and 190 nM.
For “ACAUGAGGAUCACCCAUGUCCGUCUGGUCUGUCUCGGCUGUCGAGGAUAUAGCUCGGUAUCCGCGCUAGAAGGCGGGAGUCGGG [Aenatbe mod 95] (Eterna round: R96, puzzle: Exclusion NG 3)”, the “apparent KD of MS2 coat protein” value is 36.1 nM (input ligand: FMN 200 uM), 60.9 nM under setting [1] and 61.9 nM (input ligand: none).
The like results for “ACAUGAGGAUCACCCAUGUCGACGAAAAGGCUCAUGUAGAGUGAGGAUAUGUGAGACGAACGAGAACAGAAGGCACAAGACAGG [Deportation 4 - Jieux - Exclusion NG 3] (Eterna round: R96, puzzle: Exclusion NG 3)” were, in that order, 85.8 nM, 58.9 nM and 52.3 nM.
The like results for “ACAUGAGGAUCACCCAUGUCGAGUACAUGAGGAUCACCCAUGUAGGAUAUGGUUCGCUUUGCGUGCUAGAAGGAUAUGUGAUGG [salish99_ExNG3_r04_513] (Eterna round: R96, puzzle: Exclusion NG 3)” were, in that order, 396 nM, 217 nM and 329 nM.
The corresponding values for “ACAUGAGGAUCACCCAUGUCUGGCGGGUCCUCUCCGGCUGUUGAGGAUAUAGUCCGGUAUCCGCGCUAGAAGGUGAGGGCCGGC [Aenatbe mod 19] (Eterna round: R96, puzzle: Exclusion NG 3)” are 21.8 nM, 13.8 nM and 23.5 nM.
Regarding “ACAUGAGGAUCACCCAUGUCUGGCUGGUCCGCUCCGGCUGUUGAGGAUAUAGUUCGGUGUCCGCGCUAGAAGGUGAGGGCUGGC [Aenatbe mod 35] (Eterna round: R96, puzzle: Exclusion NG 3)”, the “apparent KD of MS2 coat protein” value is, setting by setting: (input ligand: FMN 200 uM) 21.8 nM; under setting [1], 21.2 nM; (input ligand: none) 31.3 nM.
The like results for “ACAUGAGGAUCACCCAUGUCUGGCUGGUCCGUCUCGGCUGUCGAGGAUAUGGCUCGGUGUCCGCGCUAGAAGGCGGGAGCUGGC [Aenatbe mod 80] (Eterna round: R96, puzzle: Exclusion NG 3)” were, in that order, 75.2 nM, 46.2 nM and 89.3 nM.
For “ACAUGAGGAUCACCCAUGUGAAAACAAUGGCUGACAAAGAGAUAGGAUAUAUGUGCAUAUCAAACAUAGAAGGGUCAUUACUGG [Deportation 87 - Jieux - Exclusion NG 3] (Eterna round: R96, puzzle: Exclusion NG 3)”, the “apparent KD of MS2 coat protein” value was determined as 42.7 nM (input ligand: FMN 200 uM), 42.5 nM under setting [1] and 49.8 nM (input ligand: none).
